# In patent US20240317858A1 (Adimab, published 2024):
# Numbering of substitutions follows the chain as printed.
# B1: Antibody No. A003 (ADI-26913) Fab (Fab, V domains shown)
# VH: QVQLVQSGAEVKKPGASVKVSCKASGFNIKDYYMHWVRQAPGQRLEWMGWIDLENANTIYDAKFQGRVTITRDTSASTAYMELSSLRSEDTAVYYCARDQYGRYFYDVWGQGTLVTVSS
# VL: DIVMTQSPDSLAVSLGERATINCKSSQSLLNARTGKNYLAWYQQKPGQPPKLLIYWASTRESGVPDRFSGSGSGTDFTLTISSLQAEDVAVYYCKQSYSRRTFGGGTKVEIK
# notes: Fab by papain digestion of the IgG1
# B2: Antibody No. V017 (ADI-76360) Fab (Fab, V domains shown)
# VH: B1 VH with N57D, A97G, Q100A
# VL: B1 VL with R100L
# notes: as for B1
# B3: Antibody No. V019 (ADI-76362) Fab (Fab, V domains shown)
# VH: B1 VH with N55E, A56G, N57D, Q100A
# VL: B1 VL with R100L
# notes: as for B1
# B4: Antibody No. A004 (ADI-26920) Fab (Fab, V domains shown)
# VH: B1 VH with A97G, Q100A
# VL: B1 VL with R100L
# notes: as for B1
# B5: Antibody No. V014 (ADI-76357) Fab (Fab, V domains shown)
# VH: B1 VH with N28D
# VL: B1 VL
# notes: as for B1
# B6: Antibody No. A005 (ADI-26921) Fab (Fab, V domains shown)
# VH: B1 VH with N55E, A56G, Q100A
# VL: B1 VL with R100L
# notes: as for B1
# B7: Antibody No. V016 (ADI-76359) IgG1 (antibody, V domains shown)
# VH: B1 VH with N28D, A97G, Q100A
# VL: B1 VL with R100L
# notes: IgG1, CHO-produced
# B8: Antibody No. A005 (ADI-26921) IgG1 (antibody, V domains shown)
# VH: B1 VH with N55E, A56G, Q100A
# VL: B1 VL with R100L
# notes: IgG1, CHO-produced
# B9: Antibody No. V018 (ADI-76361) IgG1 (antibody, V domains shown)
# VH: B1 VH with N28D, N55E, A56G, Q100A
# VL: B1 VL with R100L
# notes: IgG1, CHO-produced
# B10: Antibody No. A003 (ADI-26913) IgG1 (antibody, V domains shown)
# VH: B1 VH
# VL: B1 VL
# notes: IgG1, CHO-produced
# B11: Antibody No. V017 (ADI-76360) IgG1 (antibody, V domains shown)
# VH: B1 VH with N57D, A97G, Q100A
# VL: B1 VL with R100L
# notes: IgG1, CHO-produced
# B12: Antibody No. A004 (ADI-26920) IgG1 (antibody, V domains shown)
# VH: B1 VH with A97G, Q100A
# VL: B1 VL with R100L
# notes: IgG1, CHO-produced
# B13: Antibody No. V014 (ADI-76357) IgG1 (antibody, V domains shown)
# VH: B1 VH with N28D
# VL: B1 VL
# notes: IgG1, CHO-produced
# B14: Antibody No. V015 (ADI-76358) IgG1 (antibody, V domains shown)
# VH: B1 VH with N57D
# VL: B1 VL
# notes: IgG1, CHO-produced
# B15: Antibody No. V019 (ADI-76362) IgG1 (antibody, V domains shown)
# VH: B1 VH with N55E, A56G, N57D, Q100A
# VL: B1 VL with R100L
# notes: IgG1, CHO-produced
# Molecular target: T1, Human CD3εδ Fc heterodimer (Hu CD3ε Fc + CD3δ Fc-HIS) (human, UniProt P07766 22-126; P04234 22-100)
# T1 construct: range 22-126;range 22-100; Made in HEK 293 cells with a heterologous signal peptide; also called Hu CD3εδ-Fc; CD3εδ Fc-HIS heterodimer; not shown: Fc; Fc followed by HIS tag
# Assay: BLI (Octet), Fab monovalent, pH 6.0
# Protocol: (§1) ForteBio KD measurements (Biolayer interferometry; BLI). ForteBio affinity measurements were performed generally as previously described (Estep, P., et al., High throughput solution-based measurement of antibody-antigen affinity and epitope binning. MAbs, 2013. 5(2): p. 270-8.). Briefly, ForteBio affinity measurements were performed by loading IgGs or CD3εδ Fe-HIS heterodimer onto AHC sensors. Sensors were equilibrated off-line in assay buffer for 30 min and then monitored on-line for 60 seconds for baseline establishment. Sensors with loaded IgGs were exposed to 100 nM antigen (e.g., CD3) for 3 min, afterwards they were transferred to assay buffer for 10 min for off-rate measurement. Sensors loaded with CD3εδ Fe-HIS heterodimer were exposed to 100 nM anti-CD3 Fab for 3 min, afterwards they were transferred to assay buffer for 3 min or 10 min for off-rate measurement. Kinetics were analyzed using the 1:1 binding model. For measuring binding at different pHs, measurements were performed at pre-determined pHs (e.g., pH 7.4 and pH 6.0).
# (§2) Anti-CD3 antibodies A001-A005, V002, V004, V007, V009, V010, V013, and V014-V019 were produced as IgG1s in CHO cells, and Fab fragments were generated from IgG1 antibodies by papain digestion and purification as described in Example 2. Human, cynomolgus, rhesus, and mouse CD3εδ Fc heterodimers were produced, and monovalent binding affinity and avidity at pH 7.4 and pH 6.0 were measured using the Octet® HTX instrument (ForteBio) as described in Example 2.
# T1 sequence (P07766 22-126, stated change not applied, form in doubt, chain 1 of 2): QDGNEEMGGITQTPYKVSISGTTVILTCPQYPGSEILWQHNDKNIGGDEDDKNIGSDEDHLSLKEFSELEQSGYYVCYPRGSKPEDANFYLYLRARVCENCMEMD
# T1 sequence (P04234 22-100, stated change not applied, form in doubt, chain 2 of 2): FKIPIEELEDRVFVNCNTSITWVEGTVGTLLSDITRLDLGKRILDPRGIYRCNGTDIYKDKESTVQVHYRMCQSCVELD
row,Binder,Kd
1,B1,29 nM
2,B2,58 nM
3,B3,36 nM
4,B4,29 nM
5,B5,24 nM
6,B6,35 nM

# Molecular target: T2, Cynomolgus CD3εδ Fc heterodimer (Cy CD3ε Fc + CD3δ Fc-HIS) (cynomolgus, UniProt Q95LI5 22-117; Q95LI8 22-100)
# T2 construct: range 22-117;range 22-100; Made in HEK 293 cells with a heterologous signal peptide; also called Cy CD3εδ-Fc; cyno CD3εδ Fc; not shown: Fc; Fc followed by HIS tag
# Assay: BLI (Octet), Fab monovalent, pH 6.0
# Protocol: as §1, §2
# T2 sequence (Q95LI5 22-117, stated change not applied, form in doubt, chain 1 of 2): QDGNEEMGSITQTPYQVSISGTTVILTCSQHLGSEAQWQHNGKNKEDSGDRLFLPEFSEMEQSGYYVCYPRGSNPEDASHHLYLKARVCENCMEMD
# T2 sequence (Q95LI8 22-100, stated change not applied, form in doubt, chain 2 of 2): as the sequence (P04234 22-100, stated change not applied, form in doubt, chain 2 of 2) above, with I5V, N15K, I20V, S32T, D33N, I34N, T64A, S74N counted along it
row,Binder,Kd
1,B1,32 nM
2,B2,34 nM
3,B3,21 nM
4,B4,23 nM
5,B5,21 nM
6,B6,45 nM

# Molecular target: T1, Human CD3εδ Fc heterodimer (Hu CD3ε Fc …)
# Assay: BLI (Octet), Fab monovalent, pH 7.4
# Protocol: as §1, §2
row,Binder,Kd
1,B1,35 nM
2,B2,420 nM
3,B3,64 nM
4,B4,42 nM
5,B5,44 nM
6,B6,78 nM

# Molecular target: T2, Cynomolgus CD3εδ Fc heterodimer (Cy …)
# Assay: BLI (Octet), Fab monovalent, pH 7.4
# Protocol: as §1, §2
row,Binder,Kd
1,B1,28 nM
2,B2,96 nM
3,B3,34 nM
4,B4,50 nM
5,B5,39 nM
6,B6,39 nM

# Molecular target: T3, Rhesus CD3εδ Fc heterodimer (rhesus)
# T3 construct: extracellular domain; also called Rh CD3εδ-Fc
# Assay: BLI (Octet), Fab monovalent, pH 7.4
# Protocol: as §1, §2
row,Binder,Kd
1,B1,33 nM
2,B3,79 nM
3,B4,51 nM
4,B5,39 nM
5,B6,36 nM

# Molecular target: T4, Human CD3 on CD3+ Jurkat cells (human, UniProt P07766 23-207)
# T4 construct: whole, on cells; Target is the endogenous CD3 complex on cells; also called Human CD3+ Jurkat cells
# Assay: flow cytometry, 100 nM IgG1, pH 7.4
# Protocol: (§3) Cell binding assays. CD3+ human Jurkat cells (ATCC) and CHO-S cells (Invitrogen/ThermoFisher) were thawed and washed with cold PBSF buffer, pH 7.4 (PBS+0.1% BSA, pH 7.4). About 200,000 cells were aliquoted per well of a 96-well plate (FACS Assay Plate VWR BD 353263) and pelleted by centrifugation (5 minutes at 500×g). The cells were washed with either PBSF pH 7.4 or PBSF pH 6.0 (PBS+0.1% BSA, pH 6.0), and then resuspended in 100 μl in either PBSF pH 7.4 or PBSF pH 6.0 with IgG1 antibody (100 nM) produced in yeast as described above or in CHO cells. The mixture (cells+antibody) was incubated for 20 minutes on ice, then washed twice with either PBSF pH 7.4 or PBSF pH 6.0. Cells were resuspended in 50 μl of propidium iodide (Roche; 1:500 dilution) and anti-human IgG-RPE (Southern Biotech; 1:100 dilution) prepared in either PBSF pH 7.4 or PBSF pH 6.0, then incubated for 20 minutes on ice in the dark before cells were washed twice with either PBSF pH 7.4 or PBSF pH 6.0. Binding was analyzed on FACS Canto II.
# (§4) Anti-CD3 antibodies A001-A005, V002, V004, V007, V009, V010, V013, and V014-V019 were produced as IgG1s in CHO cells, and binding to human CD3+ Jurkat cells and cynomolgus CD3+ HSC-F cells at pH 7.4 was analyzed by flow cytometry as described in Example 2. NCB (Normalized Cell Binding) values were calculated based on control and sample MFI values as NCB={(Sample MFI)−(Secondary only MFI)}/(Secondary only MFI).
# T4 sequence (P07766 23-207): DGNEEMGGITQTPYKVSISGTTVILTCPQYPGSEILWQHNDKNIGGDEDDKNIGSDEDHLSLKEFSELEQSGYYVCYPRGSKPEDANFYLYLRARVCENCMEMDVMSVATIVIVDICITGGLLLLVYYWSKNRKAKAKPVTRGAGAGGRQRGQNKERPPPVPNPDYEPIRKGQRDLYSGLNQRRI
row,Binder,NCB (Normalized Cell Binding)
1,B7,314
2,B8,206
3,B9,223
4,B10,209
5,B11,325
6,B12,240
7,B13,349
8,B14,334
9,B15,328

# Molecular target: T5, Cynomolgus CD3 on HSC-F cells (cynomolgus, UniProt Q95LI5 22-198)
# T5 construct: whole, on cells; Target is the endogenous CD3 complex on cells; also called Cyno CD3 HSC-F cells; Cyno CD3+ HSC-F cells
# Assay: flow cytometry, 100 nM IgG1, pH 7.4
# Protocol: as §3, §4
# T5 sequence (Q95LI5 22-198): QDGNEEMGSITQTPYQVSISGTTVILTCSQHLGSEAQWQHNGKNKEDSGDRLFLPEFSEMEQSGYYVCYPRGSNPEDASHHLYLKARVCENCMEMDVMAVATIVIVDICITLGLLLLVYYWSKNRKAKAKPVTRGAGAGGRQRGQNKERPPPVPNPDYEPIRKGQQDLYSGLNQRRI
row,Binder,NCB (Normalized Cell Binding)
1,B7,374
2,B8,364
3,B9,378
4,B10,367
5,B11,376
6,B12,348
7,B13,377
8,B14,369
9,B15,373

# Molecular target: T1, Human CD3εδ Fc heterodimer (Hu CD3ε Fc …)
# Assay: SPR (Biacore), Fab over immobilized CD3εδ Fc, pH 6.0
# Protocol: (§5) Anti-CD3 antibodies A001-A005, V002, V004, V007, V009, V010, V013, and V014-V019 were produced in CHO cells, and Fab fragments were generated from IgG1 antibodies by papain digestion and purification as described in Example 2. Monovalent binding affinity at pH 7.4 and pH 6.0 was measured via surface plasmon resonance (SPR). Briefly, human or cynomolgus CD3εδ Fe heterodimer produced as described in Example 2 was immobilized to a CM5 sensor chip in a Biacore® X100 (Cytiva, previously GE Healthcare Life Sciences) to a response level of ˜500 RUs. Fabs were then injected at 3-fold increasing concentrations, ranging from 0.74-180 nM. The sensor chip was doubly regenerated between cycles using 0.35 M EDTA and 0.1 M NaOH. The resulting data were double reference subtracted and fit to a 1:1 binding model using Biacore® Evaluation Software.
row,Binder,Kd
1,B1,11 nM
2,B2,25 nM
3,B3,33 nM
4,B4,16 nM
5,B5,12 nM
6,B6,20 nM

# Molecular target: T2, Cynomolgus CD3εδ Fc heterodimer (Cy …)
# Assay: as above
# Protocol: as §5
row,Binder,Kd
1,B1,11 nM
2,B2,26 nM
3,B3,29 nM
4,B4,15 nM
5,B5,12 nM
6,B6,24 nM

# Molecular target: T1, Human CD3εδ Fc heterodimer (Hu CD3ε Fc …)
# Assay: SPR (Biacore), Fab over immobilized CD3εδ Fc, pH 7.4
# Protocol: as §5
row,Binder,Kd
1,B1,9.9 nM
2,B2,19 nM
3,B4,10 nM
4,B5,11 nM
5,B6,24 nM

# Molecular target: T2, Cynomolgus CD3εδ Fc heterodimer (Cy …)
# Assay: as above
# Protocol: as §5
row,Binder,Kd
1,B1,9.3 nM
2,B2,16 nM
3,B4,9 nM
4,B5,11 nM
5,B6,33 nM
